Assays:
Test in all cases: pull-down
Conditions in all cases: both partners purified
[1] = biological target: original purified His-tagged N protein (SARS-CoV-2, UniProt P0DTC9 1-419)
[2] = biological target: Omicron mutant N protein, His-tagged (SARS-CoV-2, UniProt P0DTC9 1-419, P13L | RG203/204KR)
[3] = biological target: R203M and D377Y mutant N protein, His-tagged (SARS-CoV-2, UniProt P0DTC9 1-419, R203M | D377Y)

Measured: binding result

B1: purified RIG-I-GST protein (natural protein)
chain: MTTEQRRSLQAFQDYIRKTLDPTYILSYMAPWFREEEVQYIQAEKNNKGPMEAATLFLKFLLELQEEGWFRGFLDALDHAGYSGLYEAIESWDFKKIEKLEEYRLLLKRLQPEFKTRIIPTDIISDLSECLINQECEEILQICSTKGMMAGAEKLVECLLRSDKENWPKTLKLALEKERNKFSELWIVEKGIKDVETEDLEDKMETSDIQIFYQEDPECQNLSENSCPPSEVSDTNLYSPFKPRNYQLELALPAMKGKNTIICAPTGCGKTFVSLLICEHHLKKFPQGQKGKVVFFANQIPVYEQQKSVFSKYFERHGYRVTGISGATAENVPVEQIVENNDIIILTPQILVNNLKKGTIPSLSIFTLMIFDECHNTSKQHPYNMIMFNYLDQKLGGSSGPLPQVIGLTASVGVGDAKNTDEALDYICKLCASLDASVIATVKHNLEELEQVVYKPQKFFRKVESRISDKFKYIIAQLMRDTESLAKRICKDLENLSQIQNREFGTQKYEQWIVTVQKACMVFQMPDKDEESRICKALFLYTSHLRKYNDALIISEHARMKDALDYLKDFFSNVRAAGFDEIEQDLTQRFEEKLQELESVSRDPSNENPKLEDLCFILQEEYHLNPETITILFVKTRALVDALKNWIEGNPKLSFLKPGILTGRGKTNQNTGMTLPAQKCILDAFKASGDHNILIATSVADEGIDIAQCNLVILYEYVGNVIKMIQTRGRGRARGSKCFLLTSNAGVIEKEQINMYKEKMMNDSILRLQTWDEAVFREKILHIQTHEKFIRDSQEKPKPVPDKENKKLLCRKCKALACYTADVRVIEECHYTVLGDAFKECFVSRPHPKPKQFSSFEKRAKIFCARQNCSHDWGIHVKYKTFEIPVIKIESFVVEDIATGVQTLYSKWKDFHFEKIPFDPAEMSK
notes: also called GST-RIG-I; RIG-I protein (labeled with GST tag); source: E. coli BL21, purified (GSH Magnetic Agarose Beads)
binds: all assays above
